Laboratory results reported in patent publication CN113388031A (SHANGHAI INSTITUTE FOR ADVANCED STUDY OF ZHEJIANG UNIV, dated 2021).

What was measured:
[1] = biological target: SARS-CoV-2突变株D614G S蛋白 (spike protein of the D614G mutant strain, on live virus) (SARS-CoV-2 D614G mutant strain, UniProt P0DTC2 14-1273); test: cell-based or functional assay
[2] = biological target: SARS-CoV-2突变株501Y.V2 (B.1.351) S蛋白 (spike protein of 501Y.V2, on live virus) (SARS-CoV-2 501Y.V2 (B.1.351), UniProt P0DTC2 14-1273); test: cell-based or functional assay

B1: 单克隆抗体35B5 (monoclonal antibody 35B5) (antibody, V domains shown, not shown: large carriers)
VH: QVQLLESGGGLVQPGRSLRLSCAASGFTFDDYAMHWVRQAPGKGLEWVSGVSWNSGTIGYADSVKGRFTISRDNAKNSLYLHMRSLRAEDTALYYCAKAVEMVRGLMGLGADPEYGMDVWGQGTTVTVSS
VL: not shown
IC50, live SARS-CoV-2 neutralisation on Vero E6 cells (plaque / focus assay) [1]: 0.00728 µg/mL
IC50, live SARS-CoV-2 neutralisation on Vero E6 cells (plaque / focus assay) [2]: 0.013 µg/mL
